According to patent US12161669 (UMC UTRECHT HOLDING B V, dated 2024):

Target: the molecule itself
Assay: flow cytometry FRET between anti-CD277-PE (donor) and anti-CD277-DyLight 680 (acceptor) on HEK 293 cells, medium or pamidronate (ABP)

B1: CD277 (butyrophilin BTN3A1) expressed on cells (Daudi, HEK 293, EBV-LCL 48) (receptor)
chain: not shown
notes: whole, on cells; The anti-CD277 antibodies may also see other BTN3 isoforms; also called CD277J
- binding result: binds
